From paper doi:10.1101/2023.05.17.541096 (bioRxiv, 2023) come the findings set out here.

For this experiment, the target named is T1, human FIGNL1ΔN (FIGNL1 without the N-terminal 284 aa) (human, UniProt Q6PIW4 285-674).
T1 sequence: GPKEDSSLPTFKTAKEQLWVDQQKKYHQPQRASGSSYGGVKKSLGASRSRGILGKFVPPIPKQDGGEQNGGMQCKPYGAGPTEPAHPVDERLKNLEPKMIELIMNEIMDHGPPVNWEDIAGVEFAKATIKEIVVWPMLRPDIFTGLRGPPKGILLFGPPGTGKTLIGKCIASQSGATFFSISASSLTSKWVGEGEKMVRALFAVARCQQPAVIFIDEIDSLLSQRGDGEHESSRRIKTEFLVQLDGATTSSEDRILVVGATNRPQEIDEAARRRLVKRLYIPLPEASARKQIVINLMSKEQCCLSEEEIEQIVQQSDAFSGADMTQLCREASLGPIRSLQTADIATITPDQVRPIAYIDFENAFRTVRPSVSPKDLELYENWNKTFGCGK
Put plainly: native gel or EMSA.

B1: human RAD51 (natural protein)
chain: MAMQMQLEANADTSVEEESFGPQPISRLEQCGINANDVKKLEEAGFHTVEAVAYAPKKELINIKGISEAKADKILAEAAKLVPMGFTTATEFHQRRSEIIQITTGSKELDKLLQGGIETGSITEMFGEFRTGKTQICHTLAVTCQLPIDRGGGEGKAMYIDTEGTFRPERLLAVAERYGLSGSDVLDNVAYARAFNTDHQTQLLYQASAMMVESRYALLIVDSATALYRTDYSGRGELSARQMHLARFLRMLLRLADEFGVAVVITNQVVAQVDGAAMFAADPKKPIGGNIIAHASTTRLYLRKGRGETRICKIYDSPCLPEAEAMFAINADGVGDAKD
On to B1, for which the binding result is “binds”.
